Data taken from publication PMC6856059 (Nature, 2019).

Target: the molecule itself
Assay: cryo-EM structure

B1: N-terminally truncated zebrafish NKCC1 (domain or fragment)
chain: KFGWIKGVLVRCMLNIWGVMLFIRMTWIVGQAGIAYSCIIVIMATVVTTITGCSTSAIATNGFVRGGGAYYLISRSLGPEFGGSIGLIFAFANAVAVAMYVVGFAETVVELLMDSGLLMIDQTNDIRVIGTITVILLLGISVAGMEWEAKAQIFLLVILITAIFNYFIGSFIAVDSKKKFGFFSYDAGILAENFGPDFRGQTFFSVFSIFFPAATGILAGANISGDLADPQMAIPKGTLLAILITGLVYVGVAISAGACIVRDATGIESNFTLISNCTDAACKYGYDFSSCRPTVEGEVSSCKFGLHNDFQVMSVVSGFSPLISAGIFSATLSSALASLVSAPKVFQALCKDNIYPGIAIFGKGYGKNNEPLRGYFLTFGIALAFILIAELNVIAPIISNFFLASYALINFSVFHASLANSPGWRPSFKYYNMWASLAGAILCCVVMFIINWWAALLTNVIVLSLYIYVSYKKPDVNWGSSTQALTYHQALTHSLQLCGVADHIKTFRPQCLVMTGAPNSRPAILHLVHAFTKNVGLMLCGHVRISSRRPNFKELNSDMLRYQRWLLNNNSKAFYTCVVAEDLRQGTQYMLQAAGLGRLRPNTLVIGFKNDWRTGDIKEVETYINLIHDAFDFQYGVVILRLREGLDISHIQGQDDSSGMKDVVVSVDISKDSDGDSSKPSSKATSVQNSPAVQKDEDDDGKAHTQPLLKKDKKSPTVPLNVADQRLLDASQQFQQKQGKGTVDVWWLFDDGGLTLLIPYLIANKKKWKDCKIRVFIGGKINRIDHDRRAMATLLSKFRIDFSDITVLGDINTKPKSEGLTEFAEMIEPYKLREDDMEQEAAEKLKSEEPWRITDNELELYKAKGNRQIRLNELLKEHSSTANLIVMSMPLARKGAVSSALYMAWLDTLSKDLPPILLVRGNHQSVLTFYS
  stoichiometry N: 2
